Data published in the RNAGym collection of RNA variant scans (doi:10.1021/acssynbio.7b00057).

B1: Pistol ribozyme (parent)
chain: GGGUCGUUGUUCCAUAAUCGCGUGGAUAUGGCACGCAAGUUUCUACCGGGCACCGUAAAUGUCCGACUGGAGCCGUUCGGGCGGCUAUAAACAGACCUCAGGCCCGAAGCGUGGCGGCACCUGCCGCCGGUGGUAAAAAAGAUCGGAAGAGCACACGUCU

Variants of: B1
Assay: aptazyme ON/OFF ratio, guanine; higher = stronger switching; co-transcriptional cleavage with and without guanine

Variant	aptazyme ON/OFF ratio
GGGUCGCUACCGAAUAAUCGCGUGGAUAUGGCACGCAAGUUUCUACCGGGCACCGUAAAUGUCCGACUGGAGCCGUUCGGGCGGCUAUAAACAGACCUCAGGCCCGAAGCGUGGCGGCACCUGCCGCCGGUGGUAAAAAAGAUCGGAAGAGCACACGUCU [U7C G9A U10C U11C C12G C13A]	1.09
GGGUCGCUACCGGAUAAUCGCGUGGAUAUGGCACGCAAGUUUCUACCGGGCACCGUAAAUGUCCGACUGGAGCCGUUCGGGCGGCUAUAAACAGACCUCAGGCCCGAAGCGUGGCGGCACCUGCCGCCGGUGGUAAAAAAGAUCGGAAGAGCACACGUCU [U7C G9A U10C U11C C12G C13G]	1.12
GGGUCGCUACCAAAUAAUCGCGUGGAUAUGGCACGCAAGUUUCUACCGGGCACCGUAAAUGUCCGACUGGAGCCGUUCGGGCGGCUAUAAACAGACCUCAGGCCCGAAGCGUGGCGGCACCUGCCGCCGGUGGUAAAAAAGAUCGGAAGAGCACACGUCU [U7C G9A U10C U11C C12A C13A]	1.07
GGGUCGCUACCAGAUAAUCGCGUGGAUAUGGCACGCAAGUUUCUACCGGGCACCGUAAAUGUCCGACUGGAGCCGUUCGGGCGGCUAUAAACAGACCUCAGGCCCGAAGCGUGGCGGCACCUGCCGCCGGUGGUAAAAAAGAUCGGAAGAGCACACGUCU [U7C G9A U10C U11C C12A C13G]	1.15
GGGUCGCUACCAUAUAAUCGCGUGGAUAUGGCACGCAAGUUUCUACCGGGCACCGUAAAUGUCCGACUGGAGCCGUUCGGGCGGCUAUAAACAGACCUCAGGCCCGAAGCGUGGCGGCACCUGCCGCCGGUGGUAAAAAAGAUCGGAAGAGCACACGUCU [U7C G9A U10C U11C C12A C13U]	1.16
GGGUCGCUACAGCAUAAUCGCGUGGAUAUGGCACGCAAGUUUCUACCGGGCACCGUAAAUGUCCGACUGGAGCCGUUCGGGCGGCUAUAAACAGACCUCAGGCCCGAAGCGUGGCGGCACCUGCCGCCGGUGGUAAAAAAGAUCGGAAGAGCACACGUCU [U7C G9A U10C U11A C12G]	1.14
GGGUCGCUACAUCAUAAUCGCGUGGAUAUGGCACGCAAGUUUCUACCGGGCACCGUAAAUGUCCGACUGGAGCCGUUCGGGCGGCUAUAAACAGACCUCAGGCCCGAAGCGUGGCGGCACCUGCCGCCGGUGGUAAAAAAGAUCGGAAGAGCACACGUCU [U7C G9A U10C U11A C12U]	1.34
GGGUCGCUACAACAUAAUCGCGUGGAUAUGGCACGCAAGUUUCUACCGGGCACCGUAAAUGUCCGACUGGAGCCGUUCGGGCGGCUAUAAACAGACCUCAGGCCCGAAGCGUGGCGGCACCUGCCGCCGGUGGUAAAAAAGAUCGGAAGAGCACACGUCU [U7C G9A U10C U11A C12A]	1.27
GGGUCGCUACAAAAUAAUCGCGUGGAUAUGGCACGCAAGUUUCUACCGGGCACCGUAAAUGUCCGACUGGAGCCGUUCGGGCGGCUAUAAACAGACCUCAGGCCCGAAGCGUGGCGGCACCUGCCGCCGGUGGUAAAAAAGAUCGGAAGAGCACACGUCU [U7C G9A U10C U11A C12A C13A]	1.12
GGGUCGCUACAAGAUAAUCGCGUGGAUAUGGCACGCAAGUUUCUACCGGGCACCGUAAAUGUCCGACUGGAGCCGUUCGGGCGGCUAUAAACAGACCUCAGGCCCGAAGCGUGGCGGCACCUGCCGCCGGUGGUAAAAAAGAUCGGAAGAGCACACGUCU [U7C G9A U10C U11A C12A C13G]	1.22
GGGUCGCUACAAUAUAAUCGCGUGGAUAUGGCACGCAAGUUUCUACCGGGCACCGUAAAUGUCCGACUGGAGCCGUUCGGGCGGCUAUAAACAGACCUCAGGCCCGAAGCGUGGCGGCACCUGCCGCCGGUGGUAAAAAAGAUCGGAAGAGCACACGUCU [U7C G9A U10C U11A C12A C13U]	1.16
GGGUCGCUACCGCAUAAUCGCGUGGAUAUGGCACGCAAGUUUCUACCGGGCACCGUAAAUGUCCGACUGGAGCCGUUCGGGCGGCUAUAAACAGACCUCAGGCCCGAAGCGUGGCGGCACCUGCCGCCGGUGGUAAAAAAGAUCGGAAGAGCACACGUCU [U7C G9A U10C U11C C12G]	1.2
GGGUCGCUACCACAUAAUCGCGUGGAUAUGGCACGCAAGUUUCUACCGGGCACCGUAAAUGUCCGACUGGAGCCGUUCGGGCGGCUAUAAACAGACCUCAGGCCCGAAGCGUGGCGGCACCUGCCGCCGGUGGUAAAAAAGAUCGGAAGAGCACACGUCU [U7C G9A U10C U11C C12A]	1.34
GGGUCGCUACCCCAUAAUCGCGUGGAUAUGGCACGCAAGUUUCUACCGGGCACCGUAAAUGUCCGACUGGAGCCGUUCGGGCGGCUAUAAACAGACCUCAGGCCCGAAGCGUGGCGGCACCUGCCGCCGGUGGUAAAAAAGAUCGGAAGAGCACACGUCU [U7C G9A U10C U11C]	1.12
GGGUCGCUACACCAUAAUCGCGUGGAUAUGGCACGCAAGUUUCUACCGGGCACCGUAAAUGUCCGACUGGAGCCGUUCGGGCGGCUAUAAACAGACCUCAGGCCCGAAGCGUGGCGGCACCUGCCGCCGGUGGUAAAAAAGAUCGGAAGAGCACACGUCU [U7C G9A U10C U11A]	2.6
GGGUCGCUACUUAAUAAUCGCGUGGAUAUGGCACGCAAGUUUCUACCGGGCACCGUAAAUGUCCGACUGGAGCCGUUCGGGCGGCUAUAAACAGACCUCAGGCCCGAAGCGUGGCGGCACCUGCCGCCGGUGGUAAAAAAGAUCGGAAGAGCACACGUCU [U7C G9A U10C C12U C13A]	1.2
GGGUCGCUACUUUAUAAUCGCGUGGAUAUGGCACGCAAGUUUCUACCGGGCACCGUAAAUGUCCGACUGGAGCCGUUCGGGCGGCUAUAAACAGACCUCAGGCCCGAAGCGUGGCGGCACCUGCCGCCGGUGGUAAAAAAGAUCGGAAGAGCACACGUCU [U7C G9A U10C C12U C13U]	1.14
GGGUCGCUACUUGAUAAUCGCGUGGAUAUGGCACGCAAGUUUCUACCGGGCACCGUAAAUGUCCGACUGGAGCCGUUCGGGCGGCUAUAAACAGACCUCAGGCCCGAAGCGUGGCGGCACCUGCCGCCGGUGGUAAAAAAGAUCGGAAGAGCACACGUCU [U7C G9A U10C C12U C13G]	1.16
